Consider one molecule from publication PMC3025492.

The series has as its target GST-capicua (1-450) (Homo sapiens, UniProt Q96RK0-2 1-450). Kind of series: EMSA. Background: Mobility shift assays separate free from complexed probe on a gel.

B1: CRE probe (ETV4/ETV5 promoter CIC-responsive element) (dsDNA)
DNA 1: GTCGCGTTTTTTATGAATGAAAAACGTCCTTACATTCATT
DNA 2: AATGAATGTAAGGACGTTTTTCATTCATAAAAAACGCGAC
For B1, the binding result was “binds”.
